Tests used:
mouse TIMP-1 (mouse) [1] = molecular target: mouse TIMP-1 (mouse) (UniProt P12032); assay: BIAcore SPR, immobilised mouse TIMP-1
mouse TIMP-1 (mouse) [2] = molecular target: mouse TIMP-1 (mouse) (UniProt P12032); assay: BIAcore SPR

Sequence of mouse TIMP-1 (mouse) (P12032 25-205 limits assumed): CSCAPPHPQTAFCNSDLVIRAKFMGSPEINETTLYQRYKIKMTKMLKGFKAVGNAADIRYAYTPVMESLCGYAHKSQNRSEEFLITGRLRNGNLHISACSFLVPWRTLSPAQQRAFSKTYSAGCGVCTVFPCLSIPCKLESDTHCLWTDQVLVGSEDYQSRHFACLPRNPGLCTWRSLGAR

Kd (mouse TIMP-1 (mouse) [1]): 180 nM | fold weaker than the affinity to rat TIMP-1 (mouse TIMP-1 (mouse) [2]): 225 fold
B1: MS-BW-17-1 Fab (Fab, V domains shown)
VH: QVQLVQSGAEVKKPGESLKISCKGSGYSFTSYWIGWVRQMPGKGLEWMGIIYPGDSDTRYSPSFQGQVTISADKSISTAYLQWSSLKASDTAMYYCARLTNYFDSIYYDHWGQGTLVTVSS
VL: DIALTQPASVSGSPGQSITISCTGTSSDVGGYNYVSWYQQHPGKAPKLMIYDVSNRPSGVSNRFSGSKSGNTASLTISGLQAEDEADYYCQAFDVAPNGKVFGGGTKLTVLG
